The source of these data is patent US6391302 (LUDWIG INSTITUTE FOR CANCER RESEARCH, dated 2002).

First the molecules themselves.
B1: FB5HuVHK/HuVK (antibody, V domains shown)
VH: QVQLQESGPGLVRPSQTLSLTCTASGYTFTDYVIHWVKQPPGRGLEWIGYINPYDDDTTYNQKFKGRVTMLVDTSSNTAYLRLSSVTAEDTAVYYCARRGNSYDGYFDYSMDYWGQGSLVTVSS
VL: DIQMTQSPSSLSASVGDRVTITCRASQNVGTAVAWLQQTPGKAPKLLIYSASNRYTGVPSRFSGSGSGTDYTFTISSLQPEDIATYYCQQYTNYPMYTFGQGTKVQIK
B2: FB5HuVH/HuVK (antibody, V domains shown)
VH: QVQLQESGPGLVRPSQTLSLTCTASGYTFTDYVIHWVRQPPGRGLEWIGYINPYDDDTTYNQKFKGRVTMLVDTSSNTAYLRLSSVTAEDTAVYYCARRGNSYDGYFDYSMDYWGQGSLVTVSS
VL: DIQMTQSPSSLSASVGDRVTITCRASQNVGTAVAWLQQTPGKAPKLLIYSASNRYTGVPSRFSGSGSGTDYTFTISSLQPEDIATYYCQQYTNYPMYTFGQGTKVQIK
notes: also called reshaped antibody FB5HuVH/HuVK
B3: FB5HuVHK,QA,LT,VK/HuVK (antibody, V domains shown)
VH: QVQLQESGPGLVRPSQTLSLTCTASGYTFTDYVIHWVKQPPGRGLEWIGYINPYDDDTTYNQKFKGQATLTVVKSSNTAYLRLSSVTAEDTAVYYCARRGNSYDGYFDYSMDYWGQGSLVTVSS
VL: DIQMTQSPSSLSASVGDRVTITCRASQNVGTAVAWLQQTPGKAPKLLIYSASNRYTGVPSRFSGSGSGTDYTFTISSLQPEDIATYYCQQYTNYPMYTFGQGTKVQIK

The assay addresses T1, human FB5 (endosialin) cancer antigen (human, UniProt Q9HCU0 18-757).
T1 construct: whole, on cells; The antigen is presented on LA1-5s cells; also called FB5 antigen
T1 sequence (looked up): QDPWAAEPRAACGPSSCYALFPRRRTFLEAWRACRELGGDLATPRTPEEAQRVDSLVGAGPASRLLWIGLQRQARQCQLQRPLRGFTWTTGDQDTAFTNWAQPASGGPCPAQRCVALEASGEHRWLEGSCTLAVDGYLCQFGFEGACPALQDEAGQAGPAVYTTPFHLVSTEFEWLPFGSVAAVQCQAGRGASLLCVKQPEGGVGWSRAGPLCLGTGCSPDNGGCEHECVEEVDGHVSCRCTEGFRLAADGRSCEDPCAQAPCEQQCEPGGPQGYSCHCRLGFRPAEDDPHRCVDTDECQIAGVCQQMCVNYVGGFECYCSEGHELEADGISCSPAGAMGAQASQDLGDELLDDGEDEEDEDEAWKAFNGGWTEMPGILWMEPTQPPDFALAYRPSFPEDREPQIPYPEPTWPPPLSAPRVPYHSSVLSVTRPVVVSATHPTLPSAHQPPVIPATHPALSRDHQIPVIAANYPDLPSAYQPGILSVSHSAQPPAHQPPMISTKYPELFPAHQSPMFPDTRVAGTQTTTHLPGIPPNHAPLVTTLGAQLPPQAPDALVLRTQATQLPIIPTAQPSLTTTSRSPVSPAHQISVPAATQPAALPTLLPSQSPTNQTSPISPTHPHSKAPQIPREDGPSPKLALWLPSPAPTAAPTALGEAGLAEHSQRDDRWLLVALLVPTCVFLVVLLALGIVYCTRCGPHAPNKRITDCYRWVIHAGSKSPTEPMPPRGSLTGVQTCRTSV
The experiment in a line: mixed hemadsorption (MHA) rosetting assay on LA1-5s human neuroblastoma cells, protein A-conjugated red blood cells as indicator.
In turn, chimeric FB5 antibody displayed a Concentration of antibody for 50% rosetting of 3 ng/mL. Then murine monoclonal antibody mAbFB5, with 3 ng/mL; and B1, with 16 ng/mL. Then B2, with 80 ng/mL; and B3, with 16 ng/mL.
